Drawing on US20240190987A1, “Engineered EpCam Binding Antibodies” (TigaTX, priority 2021, published 2024), this text covers Kd for 11 molecules.

The target of experiment [1] is cyEpCAM ECD Ag0066 (cyno). The experiment in a line: SPR single-cycle.
The target in experiment [2] is T1, huEpCAM ECD Ag0065 (human) (UniProt P16422).
T1 sequence: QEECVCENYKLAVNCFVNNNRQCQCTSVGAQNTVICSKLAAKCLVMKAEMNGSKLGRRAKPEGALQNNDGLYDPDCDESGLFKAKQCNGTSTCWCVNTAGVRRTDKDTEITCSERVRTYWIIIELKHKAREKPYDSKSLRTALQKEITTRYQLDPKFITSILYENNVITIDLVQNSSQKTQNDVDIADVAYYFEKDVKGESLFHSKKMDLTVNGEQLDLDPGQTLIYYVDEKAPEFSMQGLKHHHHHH
Kind of experiment: SPR single-cycle.

In experiment [3] the target is cyEpCAM ECD Ag0066 (cyno). The experiment in a line: SPR multi-cycle.
In experiment [4] the target is T1, huEpCAM ECD Ag0065 (human). The experiment in a line: SPR multi-cycle.
Another experiment concerns the target Ab0670. Kind of experiment: 5-pt kinetics.
The target of a further experiment is Ab0785. Kind of experiment: BLI +indinavir.
For experiment [5], the target named is Ab0787. Kind of experiment: BLI 1-pt +indinavir.
Experiment [6] deals with Ab0223. The experiment in a line: BLI 3-pt +indinavir.
For experiment [7], the target named is Ab0223. The experiment in a line: BLI 5-pt +indinavir.
Experiment [8] has as its target Ab0223. Kind of experiment: BLI 5-pt +indinavir. The source holds these as a separate data set.
For experiment [9], the target named is Ab0786. Kind of experiment: BLI 1-pt +indinavir.
The target of experiment [10] is Ab0787. Kind of experiment: BLI 5-pt +indinavir.
In experiment [11] the target is Ab0786. The experiment in a line: BLI 5-pt +indinavir.

B1: Ab1018 (antibody, V domains shown)
VH: EVQLVESGGGLVQPGGSLRLSCAASGFTFSNYWMNWVRQAPGKGLEWVAQIRVKSENFATHYADSVKGRFTISRDDSKSTVYLQMNSLRAEDTAVYYCTLYEGFSWGQGTLVTVSS
VL: DIQMTQSPSSLSASVGDRVTITCSASSSVSSGNFHWYQQKPGKAPKLLIYRTSNLASGVPSRFSGSGSGTDYTLTISSLQPEDFATYYCQQWSGYPYTFGQGTKVEIK
Usually Kd stands for the equilibrium constant for the complex coming apart. A higher Kd goes with lower affinity. In the case of B1, the Kd in experiment [1] amounted to 2.1 nM; in [2], 3 nM; in experiment [3] it was 1.6 nM; in experiment [4], 2.8 nM.

B2: Ab1019 (antibody, V domains shown)
VH: EVQLVESGGGLVQPGGSLRLSCAASGFTFSNYWMNWVRQAPGKGLEWVAQIRVKSENFATHYADSVKGRFTISRDDSKSTVYLQMNSLRAEDTAVYYCTLYDAFSWGQGTLVTVSS
VL: DIQMTQSPSSLSASVGDRVTITCSASSSVSSGNFHWYQQKPGKAPKLLIYRTSNLASGVPSRFSGSGSGTDYTLTISSLQPEDFATYYCQQWSGYPYTFGQGTKVEIK
With B2, the Kd worked out at 2 nM in experiment [1], 2.5 nM in experiment [2], 1.1 nM in [3] and 1.8 nM in experiment [4].

B3: Ab1024 (antibody, V domains shown)
VH: EVQLVESGGGLVQPGGSLRLSCAASGFTFSNYWMNWVRQAPGKGLEWVAQIRVKSENFATHYVDSVKGRFTISRDDSKSTVYLQMNSLRAEDTAVYYCTLYDGFSWGQGTLVTVSS
VL: DIQMTQSPSSLSASVGDRVTITCSASSSVSSGNFHWYQQKPGKAPKLLIYRTSNLASGVPSRFSGSGSGTDYTLTISSLQPEDFATYYCQQWSGYPYTFGQGTKVEIK
B3: the Kd is 2 nM in [1], 2.3 nM in [2], 0.94 nM in experiment [3] and 1.6 nM in experiment [4].

B4: Ab0785 (Fab, V domains shown)
VH: QVQLVQSGAEVKKPGASVKVSCKASGYTFTSYWMHWVRQHPGQGLEWMGIIHPNSGGTSYAQKFQGRVTMTRDTSTSTVYMELSSLRSEDTAVYYCAMGDYVSRDYWGQGTLVTVSS
VL: EIVLTQSPGTLSLSPGERATLSCRASSSVSSSYLHWYQQKPGQAPRLLIYSTSSRATGIPDRFSGSGSGTDFTLTISRLEPEDFAVYYCQQYSGYQFTFGQGTKLEIK
modifications: chain 1 pos 246: the Lys of the Avi-tag is biotinylated where biotinylated-Ab0785 was captured on streptavidin sensors; written K
In the experiment with Ab0670, B4 returned a Kd of 29 nM.

B5: Ab0788 (Fab, V domains shown)
VH: QVQLVQSGAEVKKPGASVKVSCKASGYTFTSYWMHWVRQHPGQGLEWMGIIHPNSGGTNYAQKFQGRVTMTRDTSTSTVYMELSSLRSEDTAVYYCAMGDYVSRDYWGQGTLVTVSS
VL: EIVLTQSPGTLSLSPGERATLSCRASSSVSSSYLHWYQQKPGQAPRLLIYSTSSRATGIPDRFSGSGSGTDFTLTISRLEPEDFAVYYCQQYSGYQFTFGQGTKLEIK
B5: the Kd with Ab0670 was determined as 86 nM.

B6: Ab1071 (Fab, V domains shown)
VH: EVQLVESGGGLVQPGGSLRLSCAASGFDFSSYSIHWVRQAPGKGLEWVASISPYYGSTYYADSVKGRFTISADTSKNTAYLQMNSLRAEDTAVYYCARYYEWYKYDLYAGSLGFDYWGQGTLVTVSS
VL: DIQMTQSPSSLSASVGDRVTITCRASQSVSSAVAWYQQKPGKAPKLLIYSASSLYSGVPSRFSGSRSGTDFTLTISSLQPEDFATYYCQQGGYSLITFGQGTKVEIK
On to B6, for which the Kd with Ab0785 came out at 2.4 nM.

B7: Ab1047 (antibody, V domains shown)
VH: EVQLVESGGGLVQPGGSLRLSCAASGFDFSSYSIHWVRQAPGKGLEWVAAISPYYGSTAYADSVKGRFTISADTSKNTAYLQMNSLRAEDTAVYYCARAYEWYKYDLYAGSLGFDYWGQGTLVTVSS
VL: DIQMTQSPSSLSASVGDRVTITCRASQSVSSAVAWYQQKPGKAPKLLIYSASSLYSGVPSRFSGSRSGTDFTLTISSLQPEDFATYYCQQGGYSLITFGQGTKVEIK
Regarding B7, the Kd with Ab0787 [5] was determined as 47 nM.

B8: Ab0706 (antibody, V domains shown)
VH: EVQLVESGGGLVQPGGSLRLSCAASGFDFSSYSIHWVRQAPGKGLEWVASISPYYGSTYYADSVKGRFTISADTSKNTAYLQMNSLRAEDTAVYYCARYYEWYKYSLNLGSLGFDYWGQGTLVTVSS
VL: DIQMTQSPSSLSASVGDRVTITCRASQSVSSAVAWYQQKPGKAPKLLIYSASSLYSGVPSRFSGSRSGTDFTLTISSLQPEDFATYYCQQGGYSLITFGQGTKVEIK
On to B8, for which, in the experiment with Ab0223 [6], the Kd came to 89 nM.

B9: Ab0637 (antibody, V domains shown)
VH: EVQLVESGGGLVQPGGSLRLSCAASGFDFSSYSIHWVRQAPGKGLEWVASISPYYGSTYYADSVKGRFTISADTSKNTAYLQMNSLRAEDTAVYYCARYYEWYKYSLYLGSLGFDYWGQGTLVTVSS
VL: DIQMTQSPSSLSASVGDRVTITCRASQSVSSAVAWYQQKPGKAPKLLIYSASSLYSGVPSRFSGSRSGTDFTLTISSLQPEDFATYYCQQGGYSLITFGQGTKVEIK
For the molecule B9, the equilibrium dissociation constant (Kd) in the experiment with Ab0223 [7] is 5.9 nM; with Ab0223 [6], 5.4 nM; in the experiment with Ab0223 [8], 3.7 nM.

B10: Ab1044 (antibody, V domains shown)
VH: EVQLVESGGGLVQPGGSLRLSCAASGFDFSSYSIHWVRQAPGKGLEWVAAISPYYGSTYYADSVKGRFTISADTSKNTAYLQMNSLRAEDTAVYYCARYYEWYKYDLYAGSLGFDYWGQGTLVTVSS
VL: DIQMTQSPSSLSASVGDRVTITCRASQSVSSAVAWYQQKPGKAPKLLIYSASSLYSGVPSRFSGSRSGTDFTLTISSLQPEDFATYYCQQGGYSLITFGQGTKVEIK
As for B10, the Kd with Ab0787 [5] stood at 5.1 nM; in the experiment with Ab0786 [9], 8.2 nM; with Ab0787 [10] it was 2.3 nM; in the experiment with Ab0786 [11] it was 8.6 nM.

B11: Ab0707 (antibody, V domains shown)
VH: EVQLVESGGGLVQPGGSLRLSCAASGFDFSSYSIHWVRQAPGKGLEWVASISPYYGSTYYADSVKGRFTISADTSKNTAYLQMNSLRAEDTAVYYCARYYEWYKYSLDLGSLGFDYWGQGTLVTVSS
VL: DIQMTQSPSSLSASVGDRVTITCRASQSVSSAVAWYQQKPGKAPKLLIYSASSLYSGVPSRFSGSRSGTDFTLTISSLQPEDFATYYCQQGGYSLITFGQGTKVEIK
B11 yielded a Kd in the experiment with Ab0223 [6] of 72 nM.
